Biological target: T1, MAP1B LC-mScarlet (Mus musculus (Mouse), UniProt P14873)
T1 chain: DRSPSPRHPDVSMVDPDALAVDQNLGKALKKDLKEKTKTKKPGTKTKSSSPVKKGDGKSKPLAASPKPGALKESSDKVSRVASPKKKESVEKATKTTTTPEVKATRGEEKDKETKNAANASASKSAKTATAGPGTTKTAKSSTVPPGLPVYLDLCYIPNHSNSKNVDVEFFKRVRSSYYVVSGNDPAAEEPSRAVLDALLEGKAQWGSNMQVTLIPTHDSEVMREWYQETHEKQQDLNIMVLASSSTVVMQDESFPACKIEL
Test: TIRF microscopy recruitment assay on microtubules; tested on taxol-stabilised microtubules

B1: sfGFP-MAP1B HC^1-532 (protein)
chain: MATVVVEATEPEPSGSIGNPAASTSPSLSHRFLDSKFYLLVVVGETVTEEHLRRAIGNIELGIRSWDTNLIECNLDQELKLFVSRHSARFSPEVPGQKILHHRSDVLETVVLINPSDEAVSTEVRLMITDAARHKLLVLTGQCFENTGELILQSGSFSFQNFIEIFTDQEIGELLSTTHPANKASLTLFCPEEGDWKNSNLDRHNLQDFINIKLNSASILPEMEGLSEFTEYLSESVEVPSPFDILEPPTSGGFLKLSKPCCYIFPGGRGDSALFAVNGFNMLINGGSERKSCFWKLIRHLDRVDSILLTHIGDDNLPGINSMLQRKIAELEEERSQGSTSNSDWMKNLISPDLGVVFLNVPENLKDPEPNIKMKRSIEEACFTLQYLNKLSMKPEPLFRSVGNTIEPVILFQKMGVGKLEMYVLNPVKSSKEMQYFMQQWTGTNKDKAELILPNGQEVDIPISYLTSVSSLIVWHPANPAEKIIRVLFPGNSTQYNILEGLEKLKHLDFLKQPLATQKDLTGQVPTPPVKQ
B1: no binding.
